{"source": "patent EP2363413A1", "about": "(YISSUM RESEARCH DEVELOPMENT COMPANY OF THE HEBREW …, dated 2011)", "molecules": {"B1": {"name": "soluble ICOS (sICOS), human ICOS extracellular domain fused to His6-tagged human IgG1 Fc (Fc fusion)", "chain (part 1 of 2)": "EINGSANYEMFIFHNGGVQILCKYPDIVQQFKMQLLKGGQILCDLTKTKGSGNTVSIKSLKFCHSQLSNNSVSFFLYNLDHSHANYYFCNLSIFDPPPFKVTLTGGYLHIYESQLCCQLKF", "chain (part 2 of 2)": "HHHHHH", "notes": "range 21-141"}}, "key": {"[1]": {"target": "soluble CD28 (sCD28), human CD28 extracellular domain fused to His6-tagged human IgG1 Fc (human) (UniProt P10747)", "experiment": "SPR, format not stated (sCD28 was among the immobilized ligands)"}, "[2]": {"target": "staphylococcal enterotoxin B (SEB) (Staphylococcus aureus) (UniProt P01552)", "experiment": "SPR (BIAcore 3000, 25°C), SEB immobilized on CM5 chip, sB7-2 injected"}, "[3]": {"target": "T1, staphylococcal enterotoxin B (SEB) (Staphylococcus aureus, UniProt P01552 28-266)", "T1 sequence": "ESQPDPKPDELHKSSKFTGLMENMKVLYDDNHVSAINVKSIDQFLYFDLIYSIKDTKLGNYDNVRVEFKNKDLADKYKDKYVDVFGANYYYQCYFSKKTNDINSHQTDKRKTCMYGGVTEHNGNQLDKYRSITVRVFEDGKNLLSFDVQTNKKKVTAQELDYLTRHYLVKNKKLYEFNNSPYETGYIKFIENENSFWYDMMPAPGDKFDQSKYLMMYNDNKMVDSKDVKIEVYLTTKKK", "experiment": "SPR (BIAcore 3000, 25°C), SEB immobilized on CM5 chip, soluble receptor injected"}}}
{"molecule": "anti-CD28 monoclonal antibody MAB342, clone 37407.111 (R&D Systems)", "values": [{"measurement": "Kd", "setting": "[1]", "value": 0.002, "unit": "µM"}]}
{"molecule": "soluble B7-2 (sB7-2), human B7-2 extracellular domain fused to His6-tagged human IgG1 Fc (from UniProt P42081 20-239) (Fc fusion)", "values": [{"measurement": "Kd", "setting": "[2]", "value": 0.025, "unit": "µM"}]}
{"molecule": "B1", "values": [{"measurement": "Kd", "setting": "[3]", "value": 0.021, "unit": "µM"}]}
